The source of these data is article PMC10397247.

One assay has as its target T1, 4H2343-AA.
T1 chain: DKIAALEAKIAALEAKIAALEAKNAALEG
Kind of assay: two-hybrid library CCmax.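 Also: natural log of median RNA to DNA barcode read ratio; higher means stronger binding.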

A further assay addresses T2, 4H2466-AA.
T2 chain: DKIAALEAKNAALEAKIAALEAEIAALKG
Kind of assay: two-hybrid library CCmax.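 Also: natural log of median RNA to DNA barcode read ratio; higher means stronger binding.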 Conditions: mean of both orientations.

A further assay has as its target T3, 4H249-AA.
T3 chain: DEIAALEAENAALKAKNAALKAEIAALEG
Kind of assay: two-hybrid library CCmax.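 Also: natural log of median RNA to DNA barcode read ratio; higher means stronger binding.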 Conditions: mean of both orientations.

The target in the next assay is T4, 4H2592-AA.
T4 chain: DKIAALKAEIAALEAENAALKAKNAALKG
Kind of assay: two-hybrid library CCmax.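 Also: natural log of median RNA to DNA barcode read ratio; higher means stronger binding.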 Conditions: mean of both orientations.

Another assay concerns the target T5, 4H2732-AA.
T5 chain: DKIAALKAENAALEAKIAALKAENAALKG
Kind of assay: two-hybrid library CCmax.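 Also: natural log of median RNA to DNA barcode read ratio; higher means stronger binding.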 Conditions: mean of both orientations.

In the next assay the target is T6, 4H2774-AA.
T6 chain: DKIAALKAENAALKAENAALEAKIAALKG
Kind of assay: two-hybrid library CCmax.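 Also: natural log of median RNA to DNA barcode read ratio; higher means stronger binding.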 Conditions: mean of both orientations.

The target in a further assay is T7, 4H2931-AA.
T7 chain: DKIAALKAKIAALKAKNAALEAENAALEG
Kind of assay: two-hybrid library CCmax. Conditions: mean of both orientations.

A further assay has as its target T8, 4H3001-AA.
T8 chain: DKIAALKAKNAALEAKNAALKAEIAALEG
Kind of assay: two-hybrid library CCmax. Conditions: mean of both orientations.

The target of a further assay is T9, 4H3015-AA.
T9 chain: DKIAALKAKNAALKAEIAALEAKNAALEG
Kind of assay: two-hybrid library CCmax. Conditions: mean of both orientations.

Another assay concerns the target T10, 4H3073-AA.
T10 chain: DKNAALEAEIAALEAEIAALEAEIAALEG
Kind of assay: two-hybrid library CCmax. Conditions: mean of both orientations.

The target in another assay is T11, 4H3438-AA.
T11 chain: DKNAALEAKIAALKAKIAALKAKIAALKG
Kind of assay: two-hybrid library CCmax. Conditions: mean of both orientations.

Another assay concerns the target T12, 4H347-AA.
T12 chain: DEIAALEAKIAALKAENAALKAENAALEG
Kind of assay: two-hybrid library CCmax. Conditions: mean of both orientations.

The target in the next assay is T13, 4H406-AA.
T13 chain: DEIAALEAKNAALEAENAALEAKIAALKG
Kind of assay: two-hybrid library CCmax. Conditions: mean of both orientations.

The target of another assay is T14, 4H452-AA.
T14 chain: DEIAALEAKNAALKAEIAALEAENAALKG
Kind of assay: two-hybrid library CCmax. Conditions: mean of both orientations.

The target of another assay is T15, 4H56-AA.
T15 chain: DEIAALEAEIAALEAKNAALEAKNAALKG
Kind of assay: two-hybrid library CCmax. Conditions: mean of both orientations.

For a further assay, the target named is T16, 4H_APH.
T16 chain: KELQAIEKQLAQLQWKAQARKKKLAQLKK
Kind of assay: two-hybrid library CCmax. Conditions: mean of both orientations.

The target in a further assay is T17, 4H_BCR.
T17 chain: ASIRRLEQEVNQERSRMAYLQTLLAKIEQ
Kind of assay: two-hybrid library CCmax. Conditions: mean of both orientations.

The next assay has as its target 4H_GCN4. Kind of assay: two-hybrid library CCmax. Conditions: mean of both orientations.
A further assay has as its target GCN2_T. Kind of assay: two-hybrid library CCmax.
For another assay, the target named is T18, 4H3606-bH.
T18 chain: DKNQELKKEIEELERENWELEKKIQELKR
Kind of assay: two-hybrid library CCNG1. Conditions: mean of both orientations.

In the next assay the target is T19, 4H370-bH.
T19 chain: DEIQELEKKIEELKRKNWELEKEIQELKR
Kind of assay: two-hybrid library CCNG1.

The target in another assay is T20, 4H3782-bH.
T20 chain: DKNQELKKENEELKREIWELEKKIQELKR
Kind of assay: two-hybrid library CCNG1.

A further assay has as its target T21, 4H3843-bH.
T21 chain: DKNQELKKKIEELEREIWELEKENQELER
Kind of assay: two-hybrid library CCNG1.

The next assay has as its target T22, 4H4001-bH.
T22 chain: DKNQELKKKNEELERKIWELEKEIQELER
Kind of assay: two-hybrid library CCNG1.

The target in a further assay is T23, 4H462-bH.
T23 chain: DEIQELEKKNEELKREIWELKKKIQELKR
Kind of assay: two-hybrid library CCNG1.

In another assay the target is T24, 4H568-bH.
T24 chain: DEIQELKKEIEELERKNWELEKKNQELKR
Kind of assay: two-hybrid library CCNG1.

In another assay the target is T25, 4H607-bH.
T25 chain: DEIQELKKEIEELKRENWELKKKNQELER
Kind of assay: two-hybrid library CCNG1.

The next assay addresses T26, 4H687-bH.
T26 chain: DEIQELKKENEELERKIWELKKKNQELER
Kind of assay: two-hybrid library CCNG1.

The next assay concerns the target T27, 4H72-bH.
T27 chain: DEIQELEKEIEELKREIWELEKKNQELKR
Kind of assay: two-hybrid library CCNG1.

The next assay concerns the target T28, 4H797-bH.
T28 chain: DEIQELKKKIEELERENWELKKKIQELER
Kind of assay: two-hybrid library CCNG1.

A further assay addresses T29, 4H883-bH.
T29 chain: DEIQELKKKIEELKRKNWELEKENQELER
Kind of assay: two-hybrid library CCNG1.

For a further assay, the target named is T30, 4H918-bH.
T30 chain: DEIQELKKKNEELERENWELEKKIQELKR
Kind of assay: two-hybrid library CCNG1.

In another assay the target is T31, 4H953-bH.
T31 chain: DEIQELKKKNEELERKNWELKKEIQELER
Kind of assay: two-hybrid library CCNG1.

The next assay concerns the target T32, 4H967-bH.
T32 chain: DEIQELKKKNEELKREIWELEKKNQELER
Kind of assay: two-hybrid library CCNG1.

Chain of 4H_GCN4 (chain, as listed by the source): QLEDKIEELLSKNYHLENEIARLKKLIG

Take DKIAALEAKIAALEAKIAALEAKNAALEG [4H2343-AA]: the interaction score is 1.95 with 4H2343-AA; -1.39 with 4H2466-AA; -1.75 with 4H249-AA; -1.2 with 4H2592-AA; -1.84 in the assay with 4H2732-AA; -1.54 in the assay with 4H2774-AA. Besides, the interaction score in the assay with 4H2931-AA is -1.61; with 4H3001-AA, -1.8; with 4H3015-AA it was -1.83; with 4H3073-AA, 0.404; with 4H3438-AA, 0.393; with 4H347-AA, -1.77. The interaction score with 4H406-AA was -1.85; with 4H452-AA, -1.86; with 4H56-AA it was -1.45; in the assay with 4H_APH, -1.88; in the assay with 4H_BCR, -2.04; in the assay with 4H_GCN4, -1.32. In the assay with GCN2_T, this molecule yielded an interaction score of -2.25.
Turning to DKNQELKKEIEELERENWELEKKIQELKR [4H3606-bH], the interaction score with 4H3606-bH is -0.593; with 4H370-bH, 1.69; with 4H3782-bH it was -0.967; with 4H3843-bH, 0.511; with 4H4001-bH, 0.174; with 4H462-bH, -0.116. Besides, the interaction score is 1.11 with 4H568-bH; -0.729 with 4H607-bH; -0.48 with 4H687-bH; -0.306 with 4H72-bH; -0.0905 with 4H797-bH; 0.484 with 4H883-bH. Further, the interaction score with 4H918-bH is -0.633; with 4H953-bH it was -1.36; with 4H967-bH it was 1.21.
